{"source": "IntAct's records for PubMed 20850366", "parents": {"B1": {"name": "Mitochondrial fission 1 protein (Saccharomyces cerevisiae), P40515 (parent)", "chain": "MTKVDFWPTLKDAYEPLYPQQLEILRQQVVSEGGPTATIQSRFNYAWGLIKSTDVNDERLGVKILTDIYKEAESRRRECLYYLTIGCYKLGEYSMAKRYVDTLFEHERNNKQVGALKSMVEDKIQKETLKGVVVAGGVLAGAVAVASFFLRNKRR", "partner": "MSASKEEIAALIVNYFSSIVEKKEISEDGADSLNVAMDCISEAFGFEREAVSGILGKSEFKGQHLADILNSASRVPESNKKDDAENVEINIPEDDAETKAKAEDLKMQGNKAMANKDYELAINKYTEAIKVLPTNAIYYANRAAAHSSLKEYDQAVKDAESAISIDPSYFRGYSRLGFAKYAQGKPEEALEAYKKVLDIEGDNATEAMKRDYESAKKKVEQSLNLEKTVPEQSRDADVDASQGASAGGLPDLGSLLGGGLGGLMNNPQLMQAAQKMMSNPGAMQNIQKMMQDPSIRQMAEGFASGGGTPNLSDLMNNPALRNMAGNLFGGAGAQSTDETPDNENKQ"}, "B2": {"name": "Small glutamine-rich tetratricopeptide repeat-containing protein 2 (Saccharomyces cerevisiae), Q12118 (parent)", "chain": "B1 partner"}, "B3": {"name": "Small glutamine-rich tetratricopeptide repeat-containing protein 2 (Saccharomyces cerevisiae), Q12118 (parent)", "chain": "B1 partner", "partner": "B1 chain"}}}
{"variants_of": "B1", "details": "with sgt2_yeast SGT2, Q12118"}
{"variant": "MTKVDFWPTLKDAYEPLYPQQLEILRQQVVSEGGPTATIQSRFNYAWGLIKSTDVNDERLGVKILTDIYKEAESRRRECLYYLTIGCYKLGEYSMAKRYVDTLFEHERNNKQVGALKSMVEDKIQKETLKGVVVALLVLALLVAVASFFLRNKRR", "effect of a mutation on the interaction": "increasing interaction strength"}
{"variants_of": "B2", "details": "with sec22_yeast SEC22, P22214"}
{"variant": "MSASKEEIAALIVNYFSSIVEKKEISEDGADSLNVAMDCISEAFGFEREAVSGILGKSEFKGQHLADILNSASRVPESNKKDDAENVEINIPEDDAETKAKAEDLKMQGNKAMANKDYELAINKYTEAIKVLPTNAIYYANRAAAHSSLKEYDQAVKDAESAISIDPSYFAGYSALGFAKYAQGKPEEALEAYKKVLDIEGDNATEAMKRDYESAKKKVEQSLNLEKTVPEQSRDADVDASQGASAGGLPDLGSLLGGGLGGLMNNPQLMQAAQKMMSNPGAMQNIQKMMQDPSIRQMAEGFASGGGTPNLSDLMNNPALRNMAGNLFGGAGAQSTDETPDNENKQ", "note": "[R171A;R175A]", "effect of a mutation on the interaction": "with no effect"}
{"variants_of": "B3", "details": "with fis1_yeast FIS1, P40515"}
{"variant": "MSASKEEIAALIVNYFSSIVEKKEISEDGADSLNVAMDCISEAFGFEREAVSGILGKSEFKGQHLADILNSASRVPESNKKDDAENVEINIPEDDAETKAKAEDLKMQGNKAMANKDYELAINKYTEAIKVLPTNAIYYANRAAAHSSLKEYDQAVKDAESAISIDPSYFAGYSALGFAKYAQGKPEEALEAYKKVLDIEGDNATEAMKRDYESAKKKVEQSLNLEKTVPEQSRDADVDASQGASAGGLPDLGSLLGGGLGGLMNNPQLMQAAQKMMSNPGAMQNIQKMMQDPSIRQMAEGFASGGGTPNLSDLMNNPALRNMAGNLFGGAGAQSTDETPDNENKQ", "note": "[R171A;R175A]", "effect of a mutation on the interaction": "with no effect"}
